Laboratory results reported in patent US20200317768A1 (published 2020).

Columns and labels:
Human latent myostatin [1] = molecular target: T1, Human latent myostatin (human, UniProt O14793 25-266; O14793 267-375); test: SPR (BIACORE), additional dissociation phase at pH5.8 after dissociation at pH7.4, Scrubber 2.0 fit
T1 construct: Biotinylated in the ELISAs; also called human myostatin latent form
T1 sequence 1: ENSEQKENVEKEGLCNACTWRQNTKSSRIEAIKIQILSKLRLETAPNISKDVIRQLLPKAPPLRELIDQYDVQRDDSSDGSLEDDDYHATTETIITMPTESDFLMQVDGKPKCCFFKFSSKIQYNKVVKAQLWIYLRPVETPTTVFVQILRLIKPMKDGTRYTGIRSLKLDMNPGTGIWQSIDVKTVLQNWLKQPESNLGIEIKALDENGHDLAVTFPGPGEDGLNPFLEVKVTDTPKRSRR
T1 sequence 2: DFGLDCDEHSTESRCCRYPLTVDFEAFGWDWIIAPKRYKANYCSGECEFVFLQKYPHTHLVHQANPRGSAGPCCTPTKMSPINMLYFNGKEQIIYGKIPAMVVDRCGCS
Protocol: (§1) Each amino acid in the CDRs was individually mutated to histidine using In-Fusion HD Cloning Kit (Clontech Inc, or Takara Bio company) according to the manufacturer's instructions. […] All histidine-substituted variants were evaluated by a modified BIACORE® assay as compared to that described above. Briefly, an additional dissociation phase at pH5.8 was integrated into the BIACORE® assay immediately after the dissociation phase at pH7.4. This is to assess the pH-dependent dissociation between antibody (Ab) and antigen (Ag) from the complexes formed at pH7.4 as opposed to the corresponding dissociation at pH5.8. The dissociation rate at pH5.8 buffer was determined by processing and fitting data using the Scrubber 2.0 (BioLogic Software) curve fitting software.
(§2) Antibodies with a combination of these mutations in the CDRs were then generated.

Human latent myostatin [2] = molecular target: T1, Human latent myostatin; test: SPR (BIACORE), additional dissociation phase at pH5.8 after dissociation at pH7.4
Protocol: as §1, §2

GST-hMSTN 141-241aa = molecular target: T2, GST-hMSTN 141-241aa (human, UniProt A1C2U3 141-241 (Pongo pygmaeus entry)); test: Western blot on GST tagged fragments
T2 construct: As GST-hMSTN 1-100aa; also called eighth fragment; not shown: GST tag from the pGEX4.1 vector
T2 sequence: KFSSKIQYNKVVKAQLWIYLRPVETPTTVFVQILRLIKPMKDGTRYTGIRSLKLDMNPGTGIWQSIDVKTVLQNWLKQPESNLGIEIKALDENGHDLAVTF
Description: (§3) Fragments of the N-terminal propeptide coding region of human latent myostatin were cloned into a pGEX4.1 vector so as to produce GST tagged propeptide fragments of 100 amino acid each, with 80 amino acid overlap (FIG. 22A). Protein expression was induced in transformed BL21 competent cells with Overnight Express Autoinduction System (Merck Millipore) and protein was extracted using the BUGBUSTER® protein extraction reagent (Novagen).

GST-hMSTN 121-220aa = molecular target: T3, GST-hMSTN 121-220aa (human, UniProt A1C2U3 121-220 (Pongo pygmaeus entry)); test: Western blot on GST tagged fragments
T3 construct: As GST-hMSTN 1-100aa; also called seventh fragment; not shown: GST tag from the pGEX4.1 vector
T3 sequence: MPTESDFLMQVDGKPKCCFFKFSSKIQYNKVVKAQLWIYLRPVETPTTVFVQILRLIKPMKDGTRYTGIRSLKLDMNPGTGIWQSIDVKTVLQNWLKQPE
Description: as §3

GST-hMSTN 101-200aa = molecular target: T4, GST-hMSTN 101-200aa (human, UniProt A1C2U3 101-200 (Pongo pygmaeus entry)); test: Western blot on GST tagged fragments
T4 construct: As GST-hMSTN 1-100aa; also called sixth fragment; not shown: GST tag from the pGEX4.1 vector
T4 sequence: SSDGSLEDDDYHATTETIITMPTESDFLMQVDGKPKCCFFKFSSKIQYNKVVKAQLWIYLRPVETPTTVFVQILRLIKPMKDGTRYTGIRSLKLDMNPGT
Description: as §3

GST-hMSTN 81-180aa = molecular target: T5, GST-hMSTN 81-180aa (human, UniProt A1C2U3 81-180 (Pongo pygmaeus entry)); test: Western blot on GST tagged fragments
T5 construct: As GST-hMSTN 1-100aa; also called fifth fragment; not shown: GST tag from the pGEX4.1 vector
T5 sequence: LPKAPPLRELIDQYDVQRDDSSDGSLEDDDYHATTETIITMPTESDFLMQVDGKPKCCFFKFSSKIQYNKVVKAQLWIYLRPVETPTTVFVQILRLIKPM
Description: as §3

GST-hMSTN 61-160aa = molecular target: T6, GST-hMSTN 61-160aa (human, UniProt O14793 61-160); test: Western blot on GST tagged fragments
T6 construct: As GST-hMSTN 1-100aa; also called fourth fragment; not shown: GST tag from the pGEX4.1 vector
T6 sequence: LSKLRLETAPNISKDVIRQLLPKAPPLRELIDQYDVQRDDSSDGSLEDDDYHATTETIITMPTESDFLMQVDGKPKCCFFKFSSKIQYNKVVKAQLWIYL
Description: as §3

[3] = molecular target: T7, human FcγRIIIaV extracellular domain with C-terminal His-tag (human, UniProt P08637 17-208); test: SPR (BIACORE T200/4000), antibody captured, FcγR as analyte, 25 C
T7 construct: also called FcgRIIIaV; not shown: His-tag added to the C-terminus

[4] = molecular target: T8, cyno FcγRIIIaS extracellular domain with C-terminal His-tag (cynomolgus monkey, UniProt A3RFZ7 21-206 (rhesus entry)); test: as above
T8 construct: also called FcgRIIIaS; not shown: His-tag added to the C-terminus
T8 sequence (A3RFZ7 21-206): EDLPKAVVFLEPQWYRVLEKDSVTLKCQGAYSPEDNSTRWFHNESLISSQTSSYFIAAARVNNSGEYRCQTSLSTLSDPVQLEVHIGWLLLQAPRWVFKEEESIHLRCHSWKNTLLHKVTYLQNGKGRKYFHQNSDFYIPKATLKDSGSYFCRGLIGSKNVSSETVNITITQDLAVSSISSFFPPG

T7 sequence (P08637 17-208 F176V): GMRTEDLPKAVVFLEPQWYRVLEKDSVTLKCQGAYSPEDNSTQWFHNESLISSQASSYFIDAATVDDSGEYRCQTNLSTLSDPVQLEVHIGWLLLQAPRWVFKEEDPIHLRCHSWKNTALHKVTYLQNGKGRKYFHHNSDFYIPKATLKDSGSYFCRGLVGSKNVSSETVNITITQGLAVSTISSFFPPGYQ

B1: Ab002 (M103205H001 / M103202L000) (antibody, human IgG1, kappa, V domains shown)
VH: QVTLKESGPVLVKPTETLTLTCTVSGIDLSHYDISWVRQAPGKGLEWVGIISYAGSTYYASWAKGRLTISKDTSKNQVVLTMTNMDPVDTATYYCARGVPAYSTGGDLWGQGTLVTVSS
VL: DIVMTQSPATLSLSPGERATLSCQSSQSVYDNNWLSWFQQKPGQPPKLLIYWASTLASGVPSRFSGSGSGTDFTLTISSLQPEDAATYYCAGGYGGGLYAFGQGTKVEIKR
notes: Histidine-substituted variant of MS1032LO00-SG1
With B1 the koff (Human latent myostatin [1]) was 0.00609 s⁻¹ and the “fold faster dissociation rate at pH5.8 than the parental antibody Ab001” value (Human latent myostatin [2]) was greater than 200 fold.

B2: MST1572 (antibody, human IgG1, kappa, V domains shown)
VH: QSVEESGGRLVTPGTPLTLTCTVSGFSLSSYAMSWVRQAPGKGLEWIGIIYGVGSTYYASWAKGRFTISKTSTTVDLKIASPTTEDTATYFCARDDYGWGYTNLWGPGTLVTVSS
VL: QVLTQTPSSVSAAVGGTVTINCQSSQSVYNNNYLAWFQQKPGQPPKLLIYDASKLASGVPSRFKGSGSGTQFTLTISGVQCDDAATYYCQGSYYSSGWYRAFGGGTKVEIKR
B2: no binding (GST-hMSTN 141-241aa); no binding (GST-hMSTN 121-220aa); no binding (GST-hMSTN 101-200aa). B2: no binding (GST-hMSTN 81-180aa); no binding (GST-hMSTN 61-160aa).

B3: M103205H795-MY009/M103202L889-SK1 (antibody, human IgG1, kappa)
heavy: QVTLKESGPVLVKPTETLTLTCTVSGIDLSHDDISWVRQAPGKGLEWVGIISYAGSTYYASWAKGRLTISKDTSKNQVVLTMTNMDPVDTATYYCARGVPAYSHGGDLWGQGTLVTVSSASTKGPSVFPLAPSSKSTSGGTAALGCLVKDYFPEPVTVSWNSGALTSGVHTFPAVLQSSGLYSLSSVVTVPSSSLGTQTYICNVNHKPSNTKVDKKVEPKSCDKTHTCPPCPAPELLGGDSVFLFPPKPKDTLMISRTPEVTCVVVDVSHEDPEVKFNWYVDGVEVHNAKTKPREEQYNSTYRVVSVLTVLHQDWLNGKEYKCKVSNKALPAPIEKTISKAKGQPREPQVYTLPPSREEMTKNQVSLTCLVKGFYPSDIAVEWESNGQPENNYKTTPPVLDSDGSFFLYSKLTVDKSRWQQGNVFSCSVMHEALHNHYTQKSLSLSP
light: DIVMTQSPATLSLSPGERATLSCTSSQSVYHANWLSWFQQKPGQPPKLLIYWASTLAYGVPSRFSGSGSGTDFTLTISSLQPEDAATYYCAGGYGGGRYAFGQGTKVEIKRTVAAPSVFIFPPSDEQLKSGTASVVCLLNNFYPREAKVQWKVDNALQSGNSQESVTEQDSKDSTYSLSSTLTLSKADYEKHKVYACEVTHQGLSSPVTKSFNRGEC
notes: SG1 with P238D (EU numbering); also called MS1032LO06-MY009; MS1032LO006-MY009
B3: binds [3]; binds [4].
